The source of these data is patent US20150037348A1 (AbbVie / Abbott, published 2015).

Where a chain is given by its changes, count along the chain named. Numbers in names are those of the source. Where “and” joins values, the source holds several entries; their conditions need not be identical. Equal entries are not always repeated.

B1: Y61-L30N (scFv, V domains shown)
VH: QVQLVQSGGGVVQPGRSLRLSCAASGFTFSSYGMHWVRQAPGKGLEWVAFIRYDGSNKYYADSVKGRFTISRDNSKNTLYLQMKSLRAEDTAVYYCKTHGSHDNWGQGTMVTVSS
VL: SYVLTQPPSVSGTPGQRVTISCSGGRSNIGNNTVKWYQQLPGTAPKLLIYGNDQRPSGVPDRFSGSKSGTSASLAITGVQAEDEADYYCQSYDRGTHPALLFGTGTKVTVL
notes: copies: 1 + 1
B2: Y61-L30C (scFv, V domains shown)
VH: B1 VH
VL: B1 VL with N31C
notes: copies: 1 + 1
B3: Y61-L30K (scFv, V domains shown)
VH: B1 VH
VL: B1 VL with N31K
notes: copies: 1 + 1
B4: Y61-L30R (scFv, V domains shown)
VH: B1 VH
VL: B1 VL with N31R
notes: copies: 1 + 1
B5: Y61-L30D (scFv, V domains shown)
VH: B1 VH
VL: B1 VL with N31D
notes: copies: 1 + 1
B6: Y61-L30Y (scFv, V domains shown)
VH: B1 VH
VL: B1 VL with N31Y
notes: copies: 1 + 1
B7: 78-34 (scFv, V domains shown)
VH: B1 VH with K97T, H99S, H102Y, N104Y
VL: B1 VL with N31S, T96F, H97T, P98G, A99S, L100R, L101V
notes: scFv
B8: 149-6 (scFv, V domains shown)
VH: B1 VH with K97T
VL: SYVLTQPPSVSGTPGQRVTISCSGGRSNIVSNTVKWYQQLPGTAPKLLIYGNDQRPSGVPDRFSGSKSGTSASLAITGVQAEDEADYYCQSYDRGFTGSRVFGTGTKVTVLG
notes: scFv
B9: 136-15 germline (scFv, V domains shown)
VH: B1 VH with Q6E, K84N
VL: QSVLTQPPSVSGAPGQRVTISCSGSRSNIGSNTVKWYQQLPGTAPKLLIYGNDQRPSGVPDRFSGSKSGTSASLAITGLQAEDEADYYCQTYDKGFTGSSVFGTGTKVTVL
B10: 136-15 (scFv, V domains shown)
VH: B1 VH
VL: B8 VL with G25S, V30G, S91T, R94K, R100S
notes: scFv
B11: 149-5 (scFv, V domains shown)
VH: B1 VH with K97T, N104T
VL: B8 VL with V30G, R94S, G95S, F96L, T97W, S99T
notes: scFv
B12: 101-11 (scFv, V domains shown)
VH: B1 VH with K97T
VL: B1 VL with N31S, T96F, H97T, P98G, A99S, L100R, L101V
notes: scFv
B13: 103-4 (scFv, V domains shown)
VH: B1 VH with K97T
VL: B1 VL with G30V, N31S, T96F, H97T, P98G, L100R, L101V
notes: scFv
B14: Y17 (scFv, V domains shown)
VH: B1 VH
VL: B1 VL with N31S, T96S, H97A, A99M, L100I, L101N
notes: scFv
B15: 149-4 (scFv, V domains shown)
VH: B1 VH with K97T, G106S
VL: B1 VL with N31S, T96F, H97T, P98G, A99S, L100R, L101V
notes: scFv
B16: 103-8 (scFv, V domains shown)
VH: B1 VH
VL: B9 VL with Q1S, S2Y, A13T, S25G, L79V
notes: scFv
B17: 149-7 (scFv, V domains shown)
VH: B1 VH with K97T
VL: B1 VL with N31S, G95D, T96F, H97T, P98G, A99S, L100R, L101V
notes: scFv
B18: 103-7 (scFv, V domains shown)
VH: B1 VH with K97T, N104D
VL: B1 VL with N31S, G95D, T96F, H97T, P98G, A99T, L100R, L101V
notes: scFv
B19: 103-14 & 9 (scFv, V domains shown)
VH: B1 VH
VL: B1 VL with N31S, T96F, H97T, P98G, A99S, L100M, L101V
notes: scFv
B20: 149-11 (scFv, V domains shown)
VH: B1 VH with K97T, G106S
VL: B1 VL with N31S, R94N, T96F, H97T, P98G, L100R, L101V
notes: scFv
B21: 79-1 (scFv, V domains shown)
VH: B1 VH with K97T, H99S, H102Y, N104Y
VL: B1 VL with N31S, R94S, G95S, T96L, H97W, P98G, A99S, L100R, L101V
notes: scFv
B22: Y61-L94N (scFv, V domains shown)
VH: B1 VH
VL: B1 VL with N31S, G95N
B23: Y61-L94F (scFv, V domains shown)
VH: B1 VH
VL: B1 VL with N31S, G95F
B24: 136-15 (scFv)
chain: QVQLVQSGGGVVQPGRSLRLSCAASGFTFSSYGMHWVRQAPGKGLEWVAFIRYDGSNKYYADSVKGRFTISRDNSKNTLYLQMKSLRAEDTAVYYCKTHGSHDNWGQGTMVTVSSSYVLTQPPSVSGTPGQRVTISCSGSRSNIGSNTVKWYQQLPGTAPKLLIYGNDQRPSGVPDRFSGSKSGTSASLAITGVQAEDEADYYCQTYDKGFTGSSVFGTGTKVTVLG
B25: 149-6 (scFv)
chain: B24 chain with K97T, S140G, G145V, T206S, K209R, S215R
B26: 149-5 (scFv)
chain: B24 chain with K97T, N104T, S140G, T206S, K209S, G210S, F211L, T212W, S214T, S215R

In the first experiment the target is T1, human interleukin 12 (p70 heterodimer of p35 and p40) (human, UniProt P29459 23-219; P29460 23-328).
T1 construct: Recombinant human IL-12; p35 and p40 linked by a disulfide bridge; also called hIL-12; IL-12
T1 sequence (looked up) 1: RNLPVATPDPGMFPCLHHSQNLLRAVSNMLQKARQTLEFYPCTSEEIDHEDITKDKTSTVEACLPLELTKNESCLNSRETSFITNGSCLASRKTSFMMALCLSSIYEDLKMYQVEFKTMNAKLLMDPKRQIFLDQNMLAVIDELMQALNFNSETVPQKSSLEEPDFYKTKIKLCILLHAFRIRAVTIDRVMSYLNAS
T1 sequence (looked up) 2: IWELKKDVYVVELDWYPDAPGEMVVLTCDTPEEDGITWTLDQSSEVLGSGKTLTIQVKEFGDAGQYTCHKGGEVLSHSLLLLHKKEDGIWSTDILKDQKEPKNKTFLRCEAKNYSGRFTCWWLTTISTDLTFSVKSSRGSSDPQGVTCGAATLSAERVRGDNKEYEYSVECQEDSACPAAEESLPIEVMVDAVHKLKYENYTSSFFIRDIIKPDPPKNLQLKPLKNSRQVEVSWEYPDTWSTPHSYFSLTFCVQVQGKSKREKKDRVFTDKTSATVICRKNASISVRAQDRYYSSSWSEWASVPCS
As to the kind of experiment: BIAcore. For orientation: SPR reads the build-up and loss of mass on a sensor chip optically.
As for B1, the koff – broadly, the first-order rate constant of dissociation – worked out at 0.000166 s⁻¹.

B2 returned a koff of 0.000186 s⁻¹.

Regarding B3, the koff is 0.000346 s⁻¹.

B4 had a koff of 0.000182 s⁻¹.

B5 came in with a koff of 0.00022 s⁻¹.

In turn, B6 gave an off-rate (koff) of 0.000483 s⁻¹.

A further experiment deals with T2, human IL-12 (human, UniProt P29459 23-219; P29460 23-328).
T2 construct: recombinant human IL-12 heterodimer (p35/p40, disulfide-linked); also called hIL-12; rhIL-12
T2 sequence (looked up) 1: T1 sequence (looked up) 1
T2 sequence (looked up) 2: T1 sequence (looked up) 2
As to the kind of experiment: SPR (BIAcore), IL-12 chip. From the text: The system utilizes the optical properties of SPR to detect alterations in protein concentrations within a dextran biosensor matrix. Proteins are covalently bound to the dextran matrix at known concentrations. […] To determine the off rate (koff), on rate (kₒₙ), association rate (Ka) and dissociation rate (Kd) constants, BIAcore kinetic evaluation software (version 2.1) was used.
B7 showed a koff of 0.0164 s⁻¹.

B8 came in with a koff of 0.00273 s⁻¹.

The molecule B9 registered an off-rate constant (koff) of 0.00046 s⁻¹.

B10 displayed a koff of 0.00074 s⁻¹.

As to B11, the koff is 0.00102 s⁻¹.

With B12, the koff worked out at 0.0045 s⁻¹.

In the case of B13, the koff was 0.00016 s⁻¹.

Consider B14, for which the koff amounted to 8.9e-05 s⁻¹.

B15 came in with a koff of 0.00137 s⁻¹.

The molecule B16 had a koff of 0.00033 s⁻¹.

With B17, the koff is 0.00113 s⁻¹.

With B18, the koff is 0.00037 s⁻¹.

The molecule B19 came in with a koff of 0.00067 s⁻¹.

Regarding B20, the koff was 0.0143 s⁻¹.

In another experiment the target is T2, human IL-12. The experiment in a line: RB assay: 125I-hIL-12 binding to PHA blasts. On the procedure: PHA blast cells isolated as described above, were washed once and resuspended in binding buffer to a cell density of 2×10⁷ cells/ml. […] The cell pellet was examined for cell bound radioactivity using a gamma counter. […] Incubations were carried out in duplicate.
Turning to B7, the IC50 – broadly, the concentration needed to halve the response being measured – was 200 nM.

In turn, B8 yielded an IC50 of 0.6 nM.

B10: the IC50 was found to be 0.1 nM.

In turn, B11 had a half-maximal inhibitory concentration (IC50) of 0.12 nM.

Take B12: the IC50 turned out to be 2 nM.

With B13, the IC50 worked out at 0.086 nM.

The molecule B14 displayed an IC50 of 0.45 nM.

Molecule B15 came in with an IC50 of 0.08 nM.

Take B21: the IC50 was 200 nM.

The molecule B16 had an IC50 of 0.06 nM.

The molecule B17 had an IC50 of 0.9 nM.

As for B18, the IC50 was determined as 0.14 nM.

For the molecule B19, the IC50 stood at 0.04 nM.

For the molecule B20, the IC50 stood at 0.2 nM.

A further experiment deals with T2, human IL-12. As to the kind of experiment: cell-based or functional assay.
As for B7, the “PHA assay IC50” value amounted to 600 nM.

With B8, the “PHA assay IC50” value is 2 nM.

In the case of B9, the “PHA assay IC50” value stood at 6 nM.

For B10, the “PHA assay IC50” value turned out to be 2 nM.

Consider B11, for which the “PHA assay IC50” value worked out at 3 nM.

For the molecule B12, the “PHA assay IC50” value is 30 nM and 20 nM.

For B13, the “PHA assay IC50” value was determined as 0.9 nM.

Turning to B14, the “PHA assay IC50” value is above 10 nM.

In the case of B15, the “PHA assay IC50” value turned out to be 3 nM.

B21: the “PHA assay IC50” value worked out at 600 nM.

Consider B16, for which the “PHA assay IC50” value worked out at 1.5 nM.

Turning to B17, the “PHA assay IC50” value worked out at 3 nM.

On to B18, for which the “PHA assay IC50” value worked out at 1 nM.

Turning to B19, the “PHA assay IC50” value worked out at 1.2 nM.

With B20, the “PHA assay IC50” value amounted to 4 nM.

The next experiment addresses T3, recombinant human IL-12 (rhIL-12) (human, UniProt P29459 23-219; P29460 23-328).
T3 sequence (looked up) 1: T1 sequence (looked up) 1
T3 sequence (looked up) 2: T1 sequence (looked up) 2
The experiment in a line: cell-based or functional assay.
In the case of B22, the “PHA assay IC50” value was 0.08 nM.

As to B23, the “PHA assay IC50” value is 0.06 nM.

In another experiment the target is T1, human interleukin 12 (p70 heterodimer …). As to the kind of experiment: BIAcore. The source holds these as a separate data set.
Molecule B22 yielded a koff of 0.000137 s⁻¹.

In turn, B23 showed a koff of 0.000236 s⁻¹.

In another experiment the target is T3, recombinant human IL-12 (rhIL-12). The experiment in a line: cell-based or functional assay. The source holds these as a separate data set.
For B24, the “PHA assay IC50 (M) p70:p40 1:0” value stood at 2e-09 M, the “PHA assay IC50 (M) p70:p40 1:20” value was 5e-09 M and the “PHA assay IC50 (M) p70:p40 1:50” value worked out at 4e-09 M.

Consider B25, for which the “PHA assay IC50 (M) p70:p40 1:0” value was found to be 9e-10 M, the “PHA assay IC50 (M) p70:p40 1:20” value was determined as 1e-09 M and the “PHA assay IC50 (M) p70:p40 1:50” value stood at 1e-09 M.

For B26, the “PHA assay IC50 (M) p70:p40 1:0” value came out at 6.5e-09 M, the “PHA assay IC50 (M) p70:p40 1:20” value was determined as 7e-09 M and the “PHA assay IC50 (M) p70:p40 1:50” value worked out at 4e-09 M.
